# T1: Recombinant cynomolgus monkey PD-1-His (Sino Biological catalog #90311-C08H)
# T1 chain: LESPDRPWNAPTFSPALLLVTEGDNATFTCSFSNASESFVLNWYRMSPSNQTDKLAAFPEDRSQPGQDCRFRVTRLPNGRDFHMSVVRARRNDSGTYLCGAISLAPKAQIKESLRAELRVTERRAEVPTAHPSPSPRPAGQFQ
# T2: Recombinant rhesus monkey PD-1-His (Sino Biological catalog #90305-K08H)
# T2 chain: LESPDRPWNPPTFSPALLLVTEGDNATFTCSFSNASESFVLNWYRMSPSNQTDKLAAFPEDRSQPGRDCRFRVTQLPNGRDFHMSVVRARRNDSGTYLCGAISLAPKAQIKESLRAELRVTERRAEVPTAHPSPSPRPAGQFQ
# Key:
# Assay in all cases: SPR
# [1] = biological target: T1, Recombinant cynomolgus monkey PD-1-His …
# [2] = biological target: Recombinant human PD-1-His (Sino Biological catalog #10377-H08H-B) (UniProt Q15116 25-167)
# [3] = biological target: T2, Recombinant rhesus monkey PD-1-His …
binder,measurement,setting,value
"HPD-BB9 (antibody, V domains shown) VH: QVQLVQSGAEVKKPGASVKVSCKASGFRLTTNGISWVRQAPGQGLEWMGWISAGGGPTNYAQKLQGRVTMTTDTSTSTAYMELRSLRSDDTAVYYCAKGLYGTKDAWGQGTLVTVSS VL: QSVLTQPPSVSEVPGQRVTISCSGGGSNIGSNAVNWYQHFPGKAPKLLIYYNDLLPSGVSDRFSASKSGTSASLAISGLRSEDEADYYCAAWDDNLSAYVFATGTKVTVL",Kd,[1],0.0352 µM
same,Kd,[2],0.0122 µM
same,Kd,[3],0.00333 µM

# Reference: patent publication US20230235059A1 (published 2023)
